Measurements from US9090897B2, “Production of IFN-lambda by conventional dendritic cells” (Bavarian Nordic A/S, priority 2009, dated 2015).
Entries after “also recorded” stand apart in the source; their conditions may differ.

Tests used:
[1] = tested on: splenic CD8+ cDC; test: In vitro stimulation of sorted splenic CD8+ cDCs, cytokines in supernatant (IFN-λ ELISA, IL-12p70 FlowCytomix); format: cell-based, mouse; details: for IFN-λ production in combination with poly IC: stimulus added together with poly IC, IL-3 and GM-CSF, 18 h; for effect of cytokine on IFN-λ production / effect of cytokine on IL-12p70 production: combinatory stimulus poly IC+CpG-1668, cytokine 10 ng/ml
Source text: DC subsets were isolated from pooled mouse spleens as described (Vremec et al., 2007). Briefly, spleens were chopped, digested with collagenase (Worthington Biochemical) and DNase (Roche) at room temperature, and treated with EDTA. Low-density cells were enriched by density centrifugation; non-DC lineage cells were coated with mAbs (anti-CD3, KT3-1.1; anti-Thy-1, T24/31.7; anti Gr-1, 1A8; anti-CD19, ID3; anti-erythrocytes, TER119 and anti-NK cells, DX5) and depleted using anti-rat Ig magnetic beads (Qiagen). Dead cells were excluded by propidium iodide staining. cDC populations were sorted based on the expression of CD11c, CD45RA, CD4, CD8a and CD172a and pDCs were purified based on CD11c, CD45RA, and CD172a (all BD Biosciences) expression. Cell sorting was performed on a FACS Aria instrument (BD Biosciences).
Cells were stimulated in vitro with single TLR agonists or combinations thereof containing 10 μg/ml Pam3Cys (InvivoGen), 100 μg/ml poly IC (Axxora), 10 μg/ml LPS (E. coli; Sigma-Aldrich or Axxora), 10 μg/ml R848 (Axxora), 1 μM CpG-1668 or CpG-2216 (TIB-Molbiol), 1 μg/ml profilin of toxoplasma (Axxora). The recombinant cytokines mouse-IL-3, mouse-IL-4, rat-IFN-γ (PeproTech) and mouse-GM-CSF (Tebu-Bio) (10 ng/ml each) were added as indicated. The addition of IL-3 and GM-CSF was based on previous observations that GM-CSF promoted the production of IL-12p70 and that the combination of IL-3 and GM-CSF increased virus induced IFN-λ production in pDCs and cDCs (Hochrein et al., 2000; Hochrein et al., 2004). As source of a parapoxvirus Zylexis, which is used for veterinary purposes was purchased from a pharmacy. HSV-1, in replication deficient form known as disc HSV-1 (HSV-1d) was used as described (Hochrein et al., 2004). IFN-λ in supernatants was analyzed by ELISA and IL-12p70 was determined by FlowCytomix bead assay (Bender Medsystems) according to manufacturer's protocol.

[2] = tested on: mice; test: In vivo challenge (i.v.), serum IFN-λ and IFN-α by ELISA; set-up: species or system mouse; details: for IFN-λ production to poly IC after growth factor treatment: FL-KO mice treated 7 days with 10 μg growth factor per day, then 100 μg poly IC i.v., 3-4 h
Method: Mice were injected i.v. into the lateral tail vein with 100 μg poly IC (Axxora) and serum was collected 3-4 h after challenge. Sera were pre-diluted 1/5, […] was analyzed by ELISA as described (Hochrein et al., 2004). IFN-λ was determined by an IFN-λ3 (IL-28B) ELISA (R&D Systems).

[3] = tested on: CD8α+ cDCs; test: In vitro stimulation of FL expanded ex-vivo isolated splenic CD8α+ cDCs, IFN-λ; format: cell-based, mouse; details: 5×10^5/ml, IL-3+GM-CSF+IL-4+IFN-γ, 100 μg/ml, 18 h
Method: (§1) FIG. 13 depicts that in vivo FL expanded CD8α+cDCs and eCD8α cDCs selectively produce IFN-λ to poly AU in vitro. Highly purified FL expanded ex-vivo isolated splenic 5×10^5/ml were stimulated in the presence of IL-3+GM-CSF+IL-4+IFN-γ with either poly IC (100 μg/ml) or poly AU (100 μg/ml). After 18 h supernatants were analyzed for IFN-λ.
(§2) To see if the IFN-λ production to poly AU seen in vivo would correspond with the same cells as in response to poly IC we enhanced the amount of DC in mice with FL treatment and sorted CD8α+ cDCs, eCD8α cDCs and CD11b+/CD172a+cDCs. Those cells were stimulated with poly IC or poly AU.

[4] = tested on: eCD8α cDCs; test: In vitro stimulation of FL expanded ex-vivo isolated splenic eCD8α cDCs, IFN-λ; format: cell-based, mouse; details: 5×10^5/ml, IL-3+GM-CSF+IL-4+IFN-γ, 100 μg/ml, 18 h
Method: as §1, §2

[5] = tested on: mice; test: In vivo challenge (i.v.), serum IFN-λ and IFN-α by ELISA; set-up: species or system mouse

Molecule: CCCCCCCCCCCCCCCC(=O)N[C@@H](CSC[C@@H](COC(=O)CCCCCCCCCCCCCCC)OC(=O)CCCCCCCCCCCCCCC)C(=O)O [Pam3Cys]
- IFN-λ production in combination with poly IC [1]: synergistically increased IFN-λ production

Molecule: CCOCc1nc2c(N)nc3ccccc3c2n1CC(C)(C)O [R848]
- IFN-λ production in combination with poly IC [1]: unable to support poly IC induced IFN-λ production

Molecule: polyadenylic:polyuridylic acid [poly AU]
- IFN-λ in the sera ([2]; mice, 100 or 500 μg i.v., sera after 3-4 h): induces IFN-λ; also recorded: induced IFN-λ in the sera of mice
- IFN-λ production [3]: able to produce IFN-λ
- IFN-λ production [4]: able to produce IFN-λ
- systemic IFN-λ ([5]; mice, poly AU injection): not detectable

B1: IFN-γ: recombinant cytokine rat-IFN-γ (protein, UniProt P01581 23-156, looked up)
Interferon gamma: QGTLIESLESLKNYFNSSSMDAMEGKSLLLDIWRNWQKDGNTKILESQIISFYLRLFEVLKDNQAISNNISVIESHLITNFFSNSKAKKDAFMSIAKFEVNNPQIQHKAVNELIRVIHQLSPESSLRKRKRSRC
- effect of cytokine on IFN-λ production [1]: enhanced the production of IFN-λ
- effect of cytokine on IL-12p70 production [1]: little effects on IL-12p70 production

B2: IL-4: recombinant cytokine mouse-IL-4 (protein, UniProt P07750 21-140, looked up)
Interleukin-4: HIHGCDKNHLREIIGILNEVTGEGTPCTEMDVPNVLTATKNTTESELVCRASKVLRIFYLKHGKTPCLKKNSSVLMELQRLFRAFRCLDSSISCTMNESKSTSLKDFLESLKSIMQMDYS
- effect of cytokine on IFN-λ production [1]: not IFN-λ production
- effect of cytokine on IL-12p70 production [1]: increased IL-12p70

B3: FL: Fms-related tyrosine kinase 3 ligand, growth factor involved in development of DCs (protein, UniProt P49771 27-235, looked up)
Fms-related tyrosine kinase 3 …: TQDCSFQHSPISSDFAVKIRELSDYLLQDYPVTVASNLQDEELCGGLWRLVLAQRWMERLKTVAGSKMQGLLERVNTEIHFVTKCAFQPPPSCLRFVQTNISRLLQETSEQLVALKPWITRQNFSRCLELQCQPDSSTLPPPWSPRPLEATAPTAPQPPLLLLLLLPVGLLLLAAAWCLHWQRTRRRTPRPGEQVPPVPSPQDLLLVEH
- IFN-λ production to poly IC after growth factor treatment [2]: not only restored, but even increased, their IFN-λ producing capacity above WT level
- systemic IFN-λ response to poly IC challenge after growth factor treatment ([5]; FL treated WT mice): greatly increased systemic IFN-λ response

B4: M-CSF: M-CSF receptor ligand, growth factor (protein, UniProt P09603 33-554, looked up)
Macrophage colony-stimulating …: EEVSEYCSHMIGSGHLQSLQRLIDSQMETSCQITFEFVDQEQLKDPVCYLKKAFLLVQDIMEDTMRFRDNTPNAIAIVQLQELSLRLKSCFTKDYEEHDKACVRTFYETPLQLLEKVKNVFNETKNLLDKDWNIFSKNCNNSFAECSSQDVVTKPDCNCLYPKAIPSSDPASVSPHQPLAPSMAPVAGLTWEDSEGTEGSSLLPGEQPLHTVDPGSAKQRPPRSTCQSFEPPETPVVKDSTIGGSPQPRPSVGAFNPGMEDILDSAMGTNWVPEEASGEASEIPVPQGTELSPSRPGGGSMQTEPARPSNFLSASSPLPASAKGQQPADVTGTALPRVGPVRPTGQDWNHTPQKTDHPSALLRDPPEPGSPRISSLRPQGLSNPSTLSAQPQLSRSHSSGSVLPLGELEGRRSTRDRRSPAEPEGGPASEGAARPLPRFNSVPLTDTGHERQSEGSFSPQLQESVFHLLVPSVILVLLAVGGLLFYRWRRRSHQEPQRADSPLEQPEGSPLTQDDRQVELPV
- IFN-λ production to poly IC after growth factor treatment [2]: able to increase IFN-λ production to poly IC
